From paper PMC11548252
Read-outs that look alike come from different tables or passages of the source.

Tests used:
[1] = target: SARS-CoV-2 Spike protein (SARS-CoV-2) (UniProt P0DTC2); assay: fluorescence dequenching (Cy5/BHQ2)
[2] = target: SARS-CoV-2 Spike protein (SARS-CoV-2) (UniProt P0DTC2); assay: fluorescence dequenching (Cy5/BHQ2); remark: listed apart in the source
[3] = target: SARS-CoV-2 Spike protein (SARS-CoV-2) (UniProt P0DTC2); assay: ligand-responsive LAMP, colorimetric (indirect); conditions: 5'-phosphate

## CAGCACCGACCTTGTGCTTTGGGAGTGCTGGTCCAAGGGCGTTAATGGAC [EY615QF]
[1]
  binding (% fluorescence increase): 46
[2]
  binding (% fluorescence increase): 31

## CAGCACCGACCTTGTGCTTTGGGAGTGCTGGTCCAAGGGCGTTAATGGAC [EY615]
[3]
  binding (% increase of Abs430/Abs560): 81
